Target: T1, human Desmoglein 2 (Dsg2) (human, UniProt Q14126 50-1118)
T1 construct: whole, on cells; Endogenous protein; In flow cytometry it stood on the surface of H1, H9 and iPSC cells; In immunoprecipitation and Western blotting it came from lysate of (surface-biotinylated) H9 cells, with bands of 165 kDa or 100 kDa
T1 sequence (looked up): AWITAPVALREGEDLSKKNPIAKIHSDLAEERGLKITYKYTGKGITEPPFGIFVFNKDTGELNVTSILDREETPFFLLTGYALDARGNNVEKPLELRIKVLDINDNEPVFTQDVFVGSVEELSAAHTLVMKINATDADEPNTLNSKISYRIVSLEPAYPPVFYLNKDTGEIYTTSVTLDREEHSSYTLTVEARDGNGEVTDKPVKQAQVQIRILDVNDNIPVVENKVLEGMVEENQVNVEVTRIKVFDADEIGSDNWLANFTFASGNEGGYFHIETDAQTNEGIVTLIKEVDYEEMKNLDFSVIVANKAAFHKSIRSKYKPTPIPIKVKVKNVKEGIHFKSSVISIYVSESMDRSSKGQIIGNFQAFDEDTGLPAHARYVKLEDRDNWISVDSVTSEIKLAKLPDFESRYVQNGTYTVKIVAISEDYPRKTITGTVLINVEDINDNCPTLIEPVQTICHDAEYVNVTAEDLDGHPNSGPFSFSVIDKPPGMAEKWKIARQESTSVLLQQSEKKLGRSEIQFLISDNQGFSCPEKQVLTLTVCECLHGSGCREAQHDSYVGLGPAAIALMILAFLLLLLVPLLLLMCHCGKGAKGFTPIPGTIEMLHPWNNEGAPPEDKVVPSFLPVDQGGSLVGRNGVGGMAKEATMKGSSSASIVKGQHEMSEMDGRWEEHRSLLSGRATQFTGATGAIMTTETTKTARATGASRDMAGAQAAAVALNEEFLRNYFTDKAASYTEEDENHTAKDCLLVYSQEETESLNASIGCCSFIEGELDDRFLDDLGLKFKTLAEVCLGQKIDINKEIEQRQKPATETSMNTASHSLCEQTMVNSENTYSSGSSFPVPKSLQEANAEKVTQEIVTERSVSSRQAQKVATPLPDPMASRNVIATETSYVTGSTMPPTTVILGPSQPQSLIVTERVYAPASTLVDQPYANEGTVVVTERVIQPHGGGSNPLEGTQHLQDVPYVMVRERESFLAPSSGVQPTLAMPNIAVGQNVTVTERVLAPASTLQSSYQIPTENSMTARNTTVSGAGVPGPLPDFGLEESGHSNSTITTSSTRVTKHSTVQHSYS
Test: flow cytometry, fluorescence staining of H1, H9 and iPSC cells (endogenous Dsg2 on the surface)
Procedure: Among those clones prepared in Example 2, the hybridoma clone which secreted the antibody comparatively stably was selected and the binding capacity to human pluripotent stem cells was investigated. Particularly, the cultured human pluripotent stem cells were separated by using collagenase IV. The cells were treated with cell separation buffer (GIBCO) for 20 minutes at 37° C., leading to the separation of the cells as single cells. The cells were passed through 40 μm strainer, and 2×10⁵ cells proceeded to flow cytometry. The human pluripotent stem cells prepared as single cells were suspended in PBA (1% BSA was dissolved in PBS), followed by reaction with the antibody supernatant at 4° C. for 30 minutes. Centrifugation was performed at 4° C. at 1200 rpm for 5 minutes and 100 μl of the supernatant was eliminated. The anti-mouse Ig-FITC (BD) was diluted (1:200). […]
To investigate the binding capacity of the antibody 6-1 purified in Example <3-2> to human pluripotent stem cells, fluorescence staining was performed by the same manner as described in Example <3-1> (FIG. 2A). […] In FIG. 2A, the blue line illustrates the fluorescence staining of human pluripotent stem cells with the monoclonal antibody 6-1, wherein the antibody 6-1 bound to all of those three kinds of human pluripotent stem cells.

binding result: binds
B1: monoclonal antibody 6-1 (antibody, V domains shown)
VH: QVKLQESGPELVRPGESVKISCKGSGYTFTDYAMHWVKQSPAKTLEWLGVISIYYDNTNYNQKFKGKATLTVDKSSSTAYMELARLTSEDSAIYYCAREGDYFALDYWGQGTSVTVSS
VL: DIVMTQSPAIMSASPGEKVTMTCSASSSVSYMYWYQQKPGSSPRLLIYDTSNLASGVPVRFSGSGSGTSYSLTISRMEAEDAATYYCQQWSSFPLTFGAGTKLELKR
notes: Mouse monoclonal antibody from hybridoma 6-1 (Balb/c mouse immunised with H9 cells, fused with NS1 myeloma); Purified from ascites on protein G-sepharose; hybridoma supernatant was used for screening; They were cloned with an IgG1 constant region primer and a kappa chain constant region primer

— patent US20160097096A1 (KOREA RESEARCH INSTITUTE OF BIOSCIENCE AND BIOTECHNOLOGY, published 2016)
